# Test results: paper PMC5959072, “Biochemical characterization of RecBCD enzyme from an Antarctic Pseudomonas species and identification of its cognate Chi (χ) sequence” (PLoS ONE, 2018)
# Test system: Nc1ncnc2c1ncn2[C@@H]1O[C@H](COP(=O)(O)OP(=O)(O)OP(=O)(O)O)[C@@H](O)[C@H]1O
# Test: purified protein
# Settings: 22 °C, pH 7.5, 1 mM Mg acetate, NdeI-linearized pBR322 dsDNA, ATP sites in RecB and RecD
# Excerpt: TLC ATPase assay with [γ-32P]ATP tracer on RecBCD^Ps (RecBCD enzyme of Pseudomonas syringae Lz4W)
substance,measurement,value
RecBCD^Ps (RecBCD enzyme of Pseudomonas syringae Lz4W) (Pseudomonas syringae),Km,57.8 ± 10.1 µM
same,kcat,245 s⁻¹
